Legend:
[1] = biological target: T1, Arabidopsis thaliana CaM isoform 4 (Arabidopsis thaliana, UniProt P0DH96 1-149); test: slot blot of peptide probed with 35S-labeled AtCaM isoform
T1 construct: Used 35S-labeled, unlabeled or HRP-labeled, depending on the assay; also called CaM4; CaM-4

[2] = biological target: T2, Arabidopsis thaliana CaM isoform 2 (Arabidopsis thaliana, UniProt P0DH97 1-149); test: as above
T2 construct: also called CaM2; CaM-2

[3] = biological target: T3, Arabidopsis thaliana CaM isoform 6 (Arabidopsis thaliana, UniProt Q03509 1-149); test: as above
T3 construct: Used 35S-labeled, unlabeled or HRP-labeled, depending on the assay; also called CaM6; CaM-6

[4] = biological target: T1, Arabidopsis thaliana CaM isoform 4; test: tryptophan fluorescence spectroscopy, equimolar peptide and CaM (166 pmol each), excitation 290 nm
Method: (§1) FIG. 4A is the analysis of CaM binding to a synthetic 18-amino acid peptide (MP-1, SEQ ID NO:2) by electrophoretic mobility shift polyacrylamide gels with 4 M urea. Lane 1 contained CaM alone (166 pmol), lanes 2-4 contained CaM (166 pmol) and 166, 332 and 664 pmol, respectively of synthetic MP-1. BCaM is bovine CaM, CaM2, CaM4, and CaM6 are the 2, 4, and 6 isoforms of Arabidopsis CaM. […] CaM and MP-1 (166 pmol) were incubated in 5 mM Tris, pH 7.3 and 0.5 mM CaCl₂. The excitation was measured at 290 nm and bandwidth for excitation and emission was 5 nm.
(§2) The tryptophan fluorescence spectra of free and CaM-bound synthetic peptide were recorded with a Hitachi-F-3010/4010 spectrofluorimeter as described in Reddy et al. (1996) supra. NPG1 peptide and AtCaMs (166 pmol each) were mixed in a […] reaction volume. The tryptophan residue in free and CaM-bound synthetic NPG1 peptide was excited at 290 nm and the emission wavelength values were recorded from 300 to 400 nm with a bandwidth of 5 nm in a 5-mm quartz cell at 25° C. Samples were incubated for 1 h at 25° C. prior to spectroscopic measurements. Corrections were made for the protein and solvent blanks.

[5] = biological target: T2, Arabidopsis thaliana CaM isoform 2; test: as above
Method: as §1, §2

[6] = biological target: T3, Arabidopsis thaliana CaM isoform 6; test: as above
Method: as §1, §2

bovine CaM (calmodulin) [7] = biological target: T4, bovine CaM (calmodulin) (bovine, UniProt P62157 2-149); test: as above
Method: as §1, §2

[8] = biological target: T1, Arabidopsis thaliana CaM isoform 4; test: gel mobility shift, 4 M urea, CaCl2; 166 pmol CaM and 166 pmol peptide
From the text: (§3) To determine the stoichiometry of the CaM-peptide complex, we performed binding studies using the synthetic peptide (MP-1) and CaM in the presence of Ca²⁺ or EGTA. The binding of the synthetic peptide to CaM was detected by a gel mobility shift assay in polyacrylamide gels containing 4 M urea (FIG. 4A). […] In the presence of CaCl₂ the synthetic peptide retarded the migration of CaM in the gel indicating the formation of a complex between the peptide and CaM (FIG. 4A). […] At a molar ratio of 2:1 and 4:1 (peptide:CaM), the entire CaM migrated as a complex, and the band corresponding to the free CaM disappeared (FIG. 4A, lanes 3 and 4).
(§4) The interaction of CaM with synthetic peptide was also analyzed using electrophoretic mobility shift of CaM in the presence of a synthetic peptide. Each of the AtCaM isoforms and bovine CaM (166 pmol) were incubated with increasing concentrations of maize NPG1-synthetic peptide (166, 332, and 664 pmol) in the presence of 4 M urea, in a buffer containing 100 mM Tris-HCl, pH 7.5, and 1 mM CaCl₂ or 5 mM EGTA at room temperature for 1 h in a total volume of […]. Then, […] of sample buffer (0.375 M Tris-HCl, pH 6.8, 30% glycerol, and 0.023% bromphenol blue) was added to the samples and the mixture was electrophoresed in 12% polyacrylamide gels containing 4 M urea or 7.5% glycerol, 0.375 M Tris-HCl, pH 8.8, and either 1 mM CaCl₂ or 5 mM EGTA. The gels were run at a constant voltage of 25 V per gel in an electrode buffer (25 mM Tris-HCl, pH 8.3, 192 mM glycine, and either 1 mM CaCl₂ or 5 mM EGTA). The gels were stained with 0.25% Coomassie Blue R-250 in 7.5% acetic acid and 50% methanol for 1 h and then destained with 30% methanol and 7% acetic acid.

[9] = biological target: T2, Arabidopsis thaliana CaM isoform 2; test: as above
From the text: as §3, §4

[10] = biological target: T3, Arabidopsis thaliana CaM isoform 6; test: as above
From the text: as §3, §4

bovine CaM (calmodulin) [11] = biological target: T4, bovine CaM (calmodulin); test: as above
From the text: as §3, §4

[12] = biological target: T1, Arabidopsis thaliana CaM isoform 4; test: tryptophan fluorescence spectroscopy, equimolar peptide and CaM, excitation 290 nm
Method: as §1, §2

[13] = biological target: T2, Arabidopsis thaliana CaM isoform 2; test: as above
Method: as §1, §2

[14] = biological target: T3, Arabidopsis thaliana CaM isoform 6; test: as above
Method: as §1, §2

bovine CaM (calmodulin) [15] = biological target: T4, bovine CaM (calmodulin); test: as above
Method: as §1, §2

ISSKEMVRLKKLVAYWKEQAGKK (Positive control peptide) [KCBP-peptide (CaM-binding peptide of kinesin-like calmodulin binding protein)]: binds [1]; binds [2]; binds [3].

B1: synthetic peptide MP-1 (18-amino acid CaM-binding domain of maize NPG1) (peptide)
peptide: VSKGWRLLALILSAQQRF
notes: Chemically synthesized, purity about 95%; also called the synthetic peptide; maize NPG1-synthetic peptide
B1 was tested, and the “tryptophan fluorescence intensity of the peptide with CaM (free peptide about 0.1)” value [4] was roughly 4.5, the “tryptophan fluorescence intensity of the peptide with CaM (free peptide about 0.1)” value [5] was roughly 8.4 and the “tryptophan fluorescence intensity of the peptide with CaM (free peptide about 0.1)” value [6] was roughly 6.1. The “tryptophan fluorescence intensity of the peptide with CaM (free peptide about 0.1)” value (bovine CaM (calmodulin) [7]) was roughly 6.1, the “percent of CaM shifted at a molar ratio of 1:1 (peptide:CaM)” value [8] was roughly 50% and the “percent of CaM shifted at a molar ratio of 1:1 (peptide:CaM)” value [9] was roughly 50%. For the same binder, the “percent of CaM shifted at a molar ratio of 1:1 (peptide:CaM)” value [10] was roughly 50%, the “percent of CaM shifted at a molar ratio of 1:1 (peptide:CaM)” value (bovine CaM (calmodulin) [11]) was roughly 50% and the “wavelength of peak tryptophan emission of the peptide with CaM (free peptide about 350 nm)” value (shortened to “wavelength … (free peptide about 350 nm)”) [12] was roughly 315 nm. For the same binder, the “wavelength … (free peptide about 350 nm)” value [13] was roughly 315 nm, the “wavelength … (free peptide about 350 nm)” value [14] was roughly 315 nm and the “wavelength … (free peptide about 350 nm)” value (bovine CaM (calmodulin) [15]) was roughly 315 nm.

AKLDQGSLLRVKAKLKVAQSSPM [synthetic peptide MP-2 (different region of maize NPG1, negative control)]: no binding [1]; no binding [2]; no binding [3].

Source: patent publication US20030061635A1 (published 2003)
